{
  "source": "IntAct's records for PubMed 20453063",
  "data": [
    {"biological_target": "chd8_human CHD8 (UniProt Q9HCK8)", "sequence (Q9HCK8 whole entry)": "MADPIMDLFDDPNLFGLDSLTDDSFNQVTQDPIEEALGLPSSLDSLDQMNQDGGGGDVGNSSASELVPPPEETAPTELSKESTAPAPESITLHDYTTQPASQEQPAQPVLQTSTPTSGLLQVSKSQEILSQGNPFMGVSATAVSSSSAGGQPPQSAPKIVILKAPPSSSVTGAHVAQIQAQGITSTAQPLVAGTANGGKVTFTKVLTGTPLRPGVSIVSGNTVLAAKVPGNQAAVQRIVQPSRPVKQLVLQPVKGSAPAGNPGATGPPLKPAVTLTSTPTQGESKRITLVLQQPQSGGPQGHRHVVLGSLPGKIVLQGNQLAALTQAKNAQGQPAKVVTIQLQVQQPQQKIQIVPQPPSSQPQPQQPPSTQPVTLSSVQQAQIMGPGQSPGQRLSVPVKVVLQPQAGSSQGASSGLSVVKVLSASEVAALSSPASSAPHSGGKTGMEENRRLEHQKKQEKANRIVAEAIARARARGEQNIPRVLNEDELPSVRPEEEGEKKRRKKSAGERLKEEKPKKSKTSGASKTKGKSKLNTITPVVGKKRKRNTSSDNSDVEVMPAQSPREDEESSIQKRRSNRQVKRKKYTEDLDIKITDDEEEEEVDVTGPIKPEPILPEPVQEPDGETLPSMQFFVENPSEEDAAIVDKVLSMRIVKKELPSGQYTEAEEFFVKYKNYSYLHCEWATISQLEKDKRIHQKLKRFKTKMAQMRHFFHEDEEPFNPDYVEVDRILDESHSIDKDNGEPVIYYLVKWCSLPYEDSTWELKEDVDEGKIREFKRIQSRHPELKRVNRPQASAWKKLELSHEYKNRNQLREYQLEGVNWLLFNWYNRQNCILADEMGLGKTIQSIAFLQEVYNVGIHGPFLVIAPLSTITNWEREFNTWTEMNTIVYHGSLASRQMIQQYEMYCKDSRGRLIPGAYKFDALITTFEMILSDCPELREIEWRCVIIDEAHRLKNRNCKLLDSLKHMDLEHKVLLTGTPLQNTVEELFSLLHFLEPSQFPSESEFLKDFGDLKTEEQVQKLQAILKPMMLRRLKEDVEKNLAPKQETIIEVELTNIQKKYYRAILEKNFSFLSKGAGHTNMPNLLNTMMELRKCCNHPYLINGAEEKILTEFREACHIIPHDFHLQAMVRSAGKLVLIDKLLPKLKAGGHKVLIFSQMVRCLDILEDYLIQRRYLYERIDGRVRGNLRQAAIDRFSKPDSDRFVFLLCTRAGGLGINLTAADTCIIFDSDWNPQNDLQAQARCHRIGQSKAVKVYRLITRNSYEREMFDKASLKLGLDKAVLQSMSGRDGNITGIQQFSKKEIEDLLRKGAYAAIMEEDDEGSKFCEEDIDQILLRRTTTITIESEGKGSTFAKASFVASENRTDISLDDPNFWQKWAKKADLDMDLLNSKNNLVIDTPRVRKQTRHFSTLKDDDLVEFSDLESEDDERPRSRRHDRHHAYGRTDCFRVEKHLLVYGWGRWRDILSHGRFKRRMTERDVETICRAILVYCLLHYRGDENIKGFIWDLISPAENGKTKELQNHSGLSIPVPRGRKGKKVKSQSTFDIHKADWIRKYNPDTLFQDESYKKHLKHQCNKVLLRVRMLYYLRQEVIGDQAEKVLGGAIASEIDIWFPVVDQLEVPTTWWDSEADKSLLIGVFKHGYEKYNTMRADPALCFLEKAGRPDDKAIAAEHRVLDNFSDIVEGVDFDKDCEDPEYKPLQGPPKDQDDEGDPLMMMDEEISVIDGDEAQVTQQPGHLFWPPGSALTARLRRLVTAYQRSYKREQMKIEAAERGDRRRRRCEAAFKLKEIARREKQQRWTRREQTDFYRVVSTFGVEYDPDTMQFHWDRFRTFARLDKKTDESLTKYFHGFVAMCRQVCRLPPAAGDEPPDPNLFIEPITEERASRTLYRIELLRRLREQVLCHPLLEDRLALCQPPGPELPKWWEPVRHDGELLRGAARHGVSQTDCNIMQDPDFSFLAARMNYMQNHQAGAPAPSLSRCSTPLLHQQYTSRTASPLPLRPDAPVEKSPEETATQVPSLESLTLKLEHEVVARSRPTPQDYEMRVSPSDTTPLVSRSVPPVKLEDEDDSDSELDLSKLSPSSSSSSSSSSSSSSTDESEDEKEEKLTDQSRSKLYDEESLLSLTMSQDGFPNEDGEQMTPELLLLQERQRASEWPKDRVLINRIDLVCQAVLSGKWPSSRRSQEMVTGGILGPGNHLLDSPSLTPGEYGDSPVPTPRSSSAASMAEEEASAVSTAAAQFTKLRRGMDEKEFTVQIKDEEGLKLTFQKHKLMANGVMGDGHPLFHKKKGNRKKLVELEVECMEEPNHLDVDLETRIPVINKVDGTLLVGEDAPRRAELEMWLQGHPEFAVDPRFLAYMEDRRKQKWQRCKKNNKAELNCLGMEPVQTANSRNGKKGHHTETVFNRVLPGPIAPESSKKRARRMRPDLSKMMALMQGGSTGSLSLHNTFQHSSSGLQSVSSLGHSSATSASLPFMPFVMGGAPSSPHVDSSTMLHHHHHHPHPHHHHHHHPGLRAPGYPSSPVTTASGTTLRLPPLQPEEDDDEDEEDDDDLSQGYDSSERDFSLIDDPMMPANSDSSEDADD", "values": [
      {"substance": "Chromodomain-helicase-DNA-binding protein 7 (Homo sapiens), Q9P2D1 W2091R", "effect of a mutation on the interaction": "disrupting interaction"},
      {"substance": "Chromodomain-helicase-DNA-binding protein 7 (Homo sapiens), Q9P2D1 H2096R", "effect of a mutation on the interaction": "disrupting interaction"},
      {"substance": "Chromodomain-helicase-DNA-binding protein 7 (Homo sapiens), Q9P2D1 G2108R", "effect of a mutation on the interaction": "disrupting interaction"}
    ]}
  ]
}
